{"source": "patent US20140037642A1", "about": "(Amgen, published 2014)", "binders": {"B1": {"name": "L27H27 phage-displayed Fab (Fab, V domains shown)", "VH": "EVQLVQSGGGVVQPGTSLRLSCAASGFSFRSHGMHWVRQAPGKGLEWVAVISYDGSNKYYADSVKGRFTISRDNSKNTLYLQMNSLRAEDTAVYYCATIGPGGFDYWGQGTLVTVSS", "VL": "not shown"}, "B2": {"name": "L28H28 phage-displayed Fab (Fab, V domains shown)", "VH": "QVQLQESGPGLVKPSETLSLTCTVSGGSIRNYYWSWIRQPPGKGLEWIGYISDSGNTNYNPSLKSRVTISVDTSKNQFSLKLTSVTATDTAAYFCARHRSSWAWYFDLWGRGTLVTVSS", "VL": "SYVLTQPPSVSVSPGQTASITCSGDKLGDKYVGWYQQKAGQAPVLVIYQDNKRPSGIPERFSGSNSGNTASLTISGTQAMDEADYYCQAWDSGTVFGGGTKLTVL"}, "B3": {"name": "L29H29 phage-displayed Fab (Fab, V domains shown)", "VH": "QVQLQESGPGLVKPSETLSLTCAVSGGSISSSNWWSWVRQPPGKGLEWIGEIYHSGSTNYNPSLKSRVTISVDKSKNQFSLKLSSVTAADTAVYYCARVGSGWYVDYWGQGTLVTVSS", "VL": "not shown"}, "B4": {"name": "L30H30 phage-displayed Fab (Fab, V domains shown)", "VH": "QVQLQESGPGLVKPSGTLSLTCAVSGGSISSSNWWSWVRQPPGKGLEWIGEIYHSGSTNYNPSLKSRVTISVDKSKNQFSLKLSSVTAADTAVYYCARVSGYYYYGMDVWGQGTTVTVSS", "VL": "not shown"}, "B5": {"name": "L31H31 phage-displayed Fab (Fab, V domains shown)", "VH": "EVQLVQSGGGVVQPGRSLRLSCAASGFTFSSYGMHWVRQAPGKGLEWVAVISYDGSNKYYADSVKGRFTISRDNSKNTLYLQMNSLRAEDTAVYYCAKAYSSGWYDYYGMDVWGQGTTVTVSS", "VL": "DIQLTQSPSSLSASVGDRVTITCRSSQGIGYFLNWYQQEPGKAPKILISAASTLQSGVPSRFSGSGSGTDFTLSINNLQPADFATYYCQQSHSPPYTFGQGTKVEIK"}, "B6": {"name": "L25H25 phage-displayed Fab (Fab, V domains shown)", "VH": "QVQLQESGPGLVKPSGTLSLTCAVSGGSISSSNWWSWVRQPPGKGLEWIGEIYHSGSTNYNPSLKSRVTISVDKSKNQFSLKLSSVTAADTAVYYCASSGYDAFDIWGQGTTVTVSS", "VL": "not shown"}, "B7": {"name": "L32H32 phage-displayed Fab (Fab, V domains shown)", "VH": "B6 VH with S98R, S99A, G100S, Y101V, T112M", "VL": "not shown"}, "B8": {"name": "L14H14 phage-displayed Fab (Fab, V domains shown)", "VH": "QVQLQESGPGLVKPSGTLSLTCAVSGGSISSSNWWSWVRQPPGKGLEWIGEIYHSGSTNYNPSLKSRVTISVDKSKNQFSLKLSSVTAADTAVYYCARGLGDSSGYILWGQGTMVTVSS", "VL": "not shown"}, "B9": {"name": "L15H15 phage-displayed Fab (Fab, V domains shown)", "VH": "B8 VH", "VL": "DVVMTQSPLSLPVTPGEPASISCRSSQSLLHSNGYNYLDWYLQKPGQSPQLLIYLGSYRASGVPDRFSASGSGTDFTLKISRVEAEDVGVYYCMQALQTPITFGQGTRLEIK"}, "B10": {"name": "L33H33 phage-displayed Fab (Fab, V domains shown)", "VH": "B8 VH", "VL": "EIVLTQSPLSLPVTPGEPASISCRSSQSLLHSNGYNYLDWYLQKPGQSPQLLMYLVSNRASGVPERFSGSGSGTDFTLKISRVEAEDVGVYYCMQTLQTPLSFGQGTKLEIK"}, "B11": {"name": "L34H34 phage-displayed Fab (Fab, V domains shown)", "VH": "QVQLQQSGPGLVKPSGTLSLTCAVSGGSISSSNWWSWVRQPPGKGLEWIGEIYHSGSTNYNPSLKSRVTISVDKSKNQFSLKLSSVTPEDTAVYYCARDHGPFDYWGRGTLVTVSS", "VL": "not shown"}, "B12": {"name": "L36H36 phage-displayed Fab (Fab, V domains shown)", "VH": "QVQLQQWGAGLLKPSETLSLTCAVYGGSFSGYYWSWIRQPPGKGLEWIGEINHSGSTNYNPSLKSRVTISVDTSKNQFSLKLSSVTAADTAVYYCARVGYSSGRDVDYWGQGTLVTVSS", "VL": "NFMLTQPHSVSESPGKTVTISCTRSSGSIASNYVQWYQQRPGSSPTTVIYEDNQRPSGVPDRFSGSIDSSSNSASLTISGLKTEDEADYYCQSYDSSNVVFGGGTKLTVL"}, "B13": {"name": "L37H37 phage-displayed Fab (Fab, V domains shown)", "VH": "B4 VH with Q1E, Q5V, V38I, V99D, G101S, Y102S, Y103W", "VL": "not shown"}, "B14": {"name": "L38H38 phage-displayed Fab (Fab, V domains shown)", "VH": "EVQLVESGPGLVKPSETLSLTCAVSGGSISSSNWWSWVRQPPGKGLEWIGEIYHSGSTNYNPSLKSRVTISVDKSKNQFSLKLSSVTAADTAVYYCARSTWSLDYWGQGTLVTVSS", "VL": "not shown"}, "B15": {"name": "L7H7 phage-displayed Fab (Fab, V domains shown)", "VH": "B3 VH with E16G, V99F, G100W, S101D, G102Y, W103Y, Y104G, V105M, Y107V, L113T", "VL": "not shown"}, "B16": {"name": "L3H3 phage-displayed Fab (Fab, V domains shown)", "VH": "B3 VH with E16G, R98K, V99N, G100L, S101A, G102A, W103G, Y104A, D106A", "VL": "not shown"}, "B17": {"name": "L6H6 phage-displayed Fab (Fab, V domains shown)", "VH": "B3 VH with E16G, V99D, S101Q, G102L, W103D, Y104A, V105F, Y107I, L113M", "VL": "not shown"}, "B18": {"name": "L10H10 phage-displayed Fab (Fab, V domains shown)", "VH": "EVQLVESGPGLVKPSGTLSLTCAVSGGSISSSNWWSWVRQPPGKGLEWIGEIYHSGSTNYNPSLKSRVTISVDKSKNQFSLKLSSVTAADTAVYYCARDYDIFGMDVWGQGTTVTVSS", "VL": "not shown"}, "B19": {"name": "L39H39 phage-displayed Fab (Fab, V domains shown)", "VH": "B18 VH with D99L, Y100S, D101F, I102A, F103D, G104P, M105F, V107I, T113M", "VL": "not shown"}, "B20": {"name": "L40H40 phage-displayed Fab (Fab, V domains shown)", "VH": "QVQLVQSGAEVKKPGSSVKVSCKASGGTFSSYAISWVRQAPGQGLEWMGRIIPILGIANYAQKFQGRVTITADKSTSTAYMELSSLRSEDTAVYYCAYGSGSYYDYYYMDVWGKGTTVTVSS", "VL": "ETTLTQSPATLSLSPGQRATLSCRASQSVYNYLAWYQQKPGQAPRLLIYDASRRATGIPARFSGSGSGTDFTLTISSLEPEDFAVYYCQQRNNWPLTFGGGTKVEIK"}, "B21": {"name": "L49H49 phage-displayed Fab (Fab, V domains shown)", "VH": "QVQLQQWGAGLLKPSETLSLTCAVYGGSFSGYYWSWIRQPPGKGLEWIGEINHSGSTNYNPSLKSRVTISVDTSKNQFSLKLSSVTAADTAVYYCARVGYSHGEEVLDVWGKGTTVTVSS", "VL": "NFMLTQPHSVSESPGKTVSISCTRNSGSIASNFVQWYQQRPGSAPTIVIYEDNQRPSAVPTRFSGSIDRSSNSASLTISGLTTEDEADYYCQSYDSANVIFGGGTKLTVL"}, "B22": {"name": "L50H50 phage-displayed Fab (Fab, V domains shown)", "VH": "QVQLQESGPGLVKPSETLSLTCTVSGGSIGNYDWSWIRQPPGKGLEWIGTIYSSGSTYYSPSLKSRLTISVDKSKNRFSLKLSSVTAADTAVYYCARARGYSSPFDPWGQGTLVTVSS", "VL": "ETTLTQSPGTLSLSPGERATLSCRASQTISSSHLAWYQQKPGQSPRLLIYGAGYRATGIPDRFSGSGSGTDFTLTISRLEPEDFAVYYCQHYGSSLRTFGQGTKVEIK"}}, "note": "Where a chain is given by its changes, count along the chain named.", "data": [{"molecular_target": "T1, hu INSR(ECD)-muIgG1Fc (human; mouse, Glycosylated. 87% of the preparation was cleaved between the alpha and beta chains (RKRR site), which stay disulfide-linked. Dimer through the receptor and the murine Fc.)", "T1 construct": "87% processed into α and β chains; also called INSR(ECD)-muFc; INSR-mFc", "test": "phage Fab ELISA, plate coated with INSR-mFc at 5 µg/ml", "experimental": "(§1) In 96-well 2-ml deep-well blocks, 480 μl/well 2xYT-CG broth was inoculated with 20 μl of overnight cultures of the individual clones, then incubated at 37° C., 300 rpm for 3 hours. To each well, 50 μl of 1:3 diluted M13KO7 helper phage were added to infect the cells. The block was incubated at 37° C. without shaking for 30 minutes, and then shaken gently for another 30 minutes at 150 rpm. The block was centrifuged at 3600 rpm for 20 minutes to pellet the infected cells. The cell pellet in each well was suspended into 480 μl of 2xYT-CK (2xYT broth containing 100 μg/ml carbenicillin and 40 μg/ml kanamycin), and incubated at 30° C. overnight for about 20 hours. The cell debris was separated by centrifugation at 3600 rpm for 20 minutes. The rescued phage supernatant was used in the phage ELISA to check for IGF-1R-specific, INSR-cross reactive, or mouse Fc binding of individual clones.\n(§2) The coated plates were washed 3× with 300 μl/well of PBS. The washed plates were blocked with 300 μl/well 2% MPBS at room temperature for one hour. Meanwhile, rescued phages of individual clones were pre-blocked by mixing 170 μl of rescued phage with 170 μl of 4% MPBS. The blocked plates were washed 5× with 300 μl/well TBST (TBS: 10 mM Tris-HCl, pH 7.5, 1 mM EDTA, 150 mM NaCl; Tween-20. 0.1%). 100 μl/well of pre-blocked phage dilutions were distributed to each set of coated plate, which were incubated at room temperature on a rocker for 90 minutes. The plates were washed 5× with 300 μl/well TBST. 100 μl/well of anti-M13-HRP in 2% MPBS (1:3000 dilution, catalog number 27-9421-01, Amersham Pharmacia Biotech) were distributed, and plates were incubated at room temperature on rocker for one hour. The plates were washed 5× with 300 μl/well TBST. 100 μl/well of the substrate 1-Step™ ABTS (Pierce Biotechnology, Rockford, Ill., catalog number 37615) were added. Plates were incubated for one hour. OD₄₀₅ was measured for signal detection.", "values": [{"binder": "B1", "binding result": "no binding"}, {"binder": "B2", "binding result": "no binding"}, {"binder": "B3", "binding result": "no binding"}, {"binder": "B4", "binding result": "no binding"}, {"binder": "B5", "binding result": "no binding"}, {"binder": "B6", "binding result": "no binding"}, {"binder": "B7", "binding result": "no binding"}, {"binder": "B8", "binding result": "no binding"}, {"binder": "B9", "binding result": "no binding"}, {"binder": "B10", "binding result": "no binding"}, {"binder": "B11", "binding result": "no binding"}, {"binder": "B12", "binding result": "no binding"}, {"binder": "B13", "binding result": "no binding"}, {"binder": "B14", "binding result": "no binding"}, {"binder": "B15", "binding result": "no binding"}, {"binder": "B16", "binding result": "no binding"}, {"binder": "B17", "binding result": "no binding"}, {"binder": "B18", "binding result": "no binding"}, {"binder": "B19", "binding result": "no binding"}, {"binder": "B20", "binding result": "no binding"}, {"binder": "B21", "binding result": "no binding"}, {"binder": "B22", "binding result": "no binding"}]}, {"molecular_target": "T2, hu IGF-1R(ECD)-C3-muIgG1Fc (human; mouse, Glycosylated. 60% of the preparation was cleaved between the alpha and beta chains (RKRR, mature positions 708-711), which stay disulfide-linked; 40% was unprocessed. Dimer through the …)", "T2 construct": "60% of the product was processed into α and β chains, 40% unprocessed; also called IGF-1R(ECD)-C3-muFc; IGF-1R-C3-muFc", "test": "phage Fab ELISA, plate coated with IGF-1R-C3-mFc at 5 µg/ml", "experimental": "as §1, §2", "values": [{"binder": "B1", "binding result": "binds"}, {"binder": "B2", "binding result": "binds"}, {"binder": "B3", "binding result": "binds"}, {"binder": "B4", "binding result": "binds"}, {"binder": "B5", "binding result": "binds"}, {"binder": "B6", "binding result": "binds"}, {"binder": "B7", "binding result": "binds"}, {"binder": "B8", "binding result": "binds"}, {"binder": "B9", "binding result": "binds"}, {"binder": "B10", "binding result": "binds"}, {"binder": "B11", "binding result": "binds"}, {"binder": "B12", "binding result": "binds"}, {"binder": "B13", "binding result": "binds"}, {"binder": "B14", "binding result": "binds"}, {"binder": "B15", "binding result": "binds"}, {"binder": "B16", "binding result": "binds"}, {"binder": "B17", "binding result": "binds"}, {"binder": "B18", "binding result": "binds"}, {"binder": "B19", "binding result": "binds"}, {"binder": "B20", "binding result": "binds"}, {"binder": "B21", "binding result": "binds"}, {"binder": "B22", "binding result": "binds"}]}]}
